Measured values as given in patent US20060204512A1 (VASGENE THERAPEUTICS, published 2006).

Biological target: T1, EphB4 CF2 protein (ECD version with deleted globular domain, 6xHis tagged) (human, UniProt P54760 16-537)
T1 construct: The entry is the precursor
T1 sequence: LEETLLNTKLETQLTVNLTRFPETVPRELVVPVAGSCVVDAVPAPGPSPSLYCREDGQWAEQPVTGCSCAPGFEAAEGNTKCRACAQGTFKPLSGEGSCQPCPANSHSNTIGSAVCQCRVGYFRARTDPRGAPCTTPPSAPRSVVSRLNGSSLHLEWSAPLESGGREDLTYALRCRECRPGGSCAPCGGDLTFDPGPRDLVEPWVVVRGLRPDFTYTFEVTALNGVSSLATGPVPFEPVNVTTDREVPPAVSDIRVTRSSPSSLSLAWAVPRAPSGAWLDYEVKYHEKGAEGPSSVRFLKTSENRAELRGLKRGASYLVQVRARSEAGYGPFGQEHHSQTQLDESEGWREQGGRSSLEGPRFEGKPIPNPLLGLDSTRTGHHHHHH
Assay: Ephrin B2-AP binding to B4 proteins immobilized on Ni2+ resin or nitrocellulose membrane
Procedure: To confirm ability of the purified recombinant proteins to bind Ephrin B2, they were tested in an in vitro binding assay. As expected, GC, GCF1 and GCF2, but not CF2 are binding the cognate ligand Ephrin B2 as confirmed by interaction between Ephrin B2-alkaline phosphatase (Ephrin B2-AP) fusion protein with the B4 proteins immobilized on Ni²⁺ resin or on nitrocellulose membrane (FIG. 17).

B1: B2EC-AP reagent (protein fusion of Ephrin B2 ectodomain with placental alkaline phosphatase) (ligand, UniProt P52799 28-229, looked up)
chain: IVLEPIYWNSSNSKFLPGQGLVLYPQIGDKLDIICPKVDSKTVGQYEYYKVYMVDKDQADRCTIKKENTPLLNCAKPDQDIKFTIKFQEFSPNLWGLEFQKNKDYYIISTSNGSLEGLDNQEGGVCQTRAMKILMKVGQDASSAGSTRNKDPTRRPELEAGTNGRSSTTSPFVKPNPGSSTDGNSAGHSGNNILGSEVALFA
notes: extracellular domain; also called B2-AP; Ephrin B2-AP; not shown: placental alkaline phosphatase
Q: Does B1 bind?
A: Result: no binding
